In doi:10.1101/2025.08.11.669711:

Target: UCH37•RPN13 (UniProt Q16186)
Test: steady-state enzyme inhibition kinetics; cleavage of K6/K48 tri-Ub by UCH37•RPN13 (0.5 μM) with varied Nb-ncS1; 50 mM HEPES pH 7.5, 50 mM NaCl, 1 mM DTT; 37 °C; competitive inhibition fit

Sequence of UCH37•RPN13 (Q16186 whole entry, looked up): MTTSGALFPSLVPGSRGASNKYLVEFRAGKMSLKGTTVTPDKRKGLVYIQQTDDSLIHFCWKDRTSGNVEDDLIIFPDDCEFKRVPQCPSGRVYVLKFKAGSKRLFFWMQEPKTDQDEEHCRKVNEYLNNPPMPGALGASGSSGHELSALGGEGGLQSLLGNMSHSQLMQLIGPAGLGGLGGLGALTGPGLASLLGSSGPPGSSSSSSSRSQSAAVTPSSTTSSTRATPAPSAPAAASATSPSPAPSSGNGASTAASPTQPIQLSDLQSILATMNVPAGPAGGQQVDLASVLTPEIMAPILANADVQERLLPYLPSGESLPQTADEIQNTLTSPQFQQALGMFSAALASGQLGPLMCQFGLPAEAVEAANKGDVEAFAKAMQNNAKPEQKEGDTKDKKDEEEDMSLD

Ki: 0.12 µM
B1: Nb-ncS1 (His-tagged) (VHH)
VHH: RVQLQESGGGLVQAGGSLRLSCAASGYIFRSYRMGWYRQAPGKERELVAAIGLGGNTYYADSVKGRFTISRDNAKNTVYQQMNSLKPEDTAVYYCAALYGKPPAFSPFPYWGQGTQVTVSS
